± gives the standard deviation of the averaged measurements.
B1: library; a variant is named by its letters at N, in order (parent)
chain: GCUGUCACCGGUGUAUUACCCUAGUGGUCGACCGGUCUGAUGAGUCUNNNNNNAGACGAAACAGC

Key:
[1] = variants of: B1; assay: normalized RNA/DNA level with ligand (relative to sTRSVctl = 100) (log10 (% of sTRSVctl)); ligand: hypoxanthine (xanthine aptamer); higher = less ribozyme self-cleavage, higher mRNA level; conditions: ligand concentration (+) RNA-Seq: 5 mM, HEK293T, reporter: mCherry (pCS4076), ligand present: yes
Procedure, shortened: (§1)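 Ribozyme switch library plasmids linked to reporters were introduced into HEK293T cells at 4 µg per 6-well well, with ligand, if any, added 1 h before. Total RNA was extracted with EDTA 72 h later, reverse-transcribed, amplified, barcoded and sequenced. RNA level was computed from RNA over DNA reads relative to a spiked-in non-cleaving sequence or the top sequences, then scaled and log-transformed. The top set was 25 sequences, values were ×100 and log10, and the cutoff was ≥100 DNA reads.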

[2] = variants of: B1; assay: normalized RNA/DNA level without ligand (relative to sTRSVctl = 100) (log10 (% of sTRSVctl)); ligand: hypoxanthine (xanthine aptamer); higher = less ribozyme self-cleavage, higher mRNA level; conditions: HEK293T, reporter: mCherry (pCS4076), ligand present: no
Procedure, shortened: as §1

Variant	normalized RNA/DNA level with ligand (log10) [1]	normalized RNA/DNA level without ligand (log10) [2]
UGGGUC	1.98 ± 0.043	1.966 ± 0.0086
UGGGUG	1.972 ± 0.0063	1.727 ± 0.016
UGGGUU	1.99 ± 0.023	1.9 ± 0.047
UGGUGG	1.93 ± 0.038	1.596 ± 0.0083
UGGUGA	1.88 ± 0.023	1.52 ± 0.088
UGGUGU	1.95 ± 0.067	1.599 ± 0.0035
UGGUGC	1.94 ± 0.011	1.855 ± 0.0028
GGGACA	1.938 ± 0.016	1.802 ± 0.011
GGGACU	1.872 ± 0.0089	1.91 ± 0.024
GGGACC	1.98 ± 0.069	1.86 ± 0.052
UGGAUC	1.99 ± 0.04	1.95 ± 0.027
UGGAUU	1.97 ± 0.021	1.824 ± 0.0038
UGGAUA	1.96 ± 0.042	1.84 ± 0.02
CGGGGG	1.86 ± 0.032	1.25 ± 0.059
CGGGGA	1.97 ± 0.097	1.76 ± 0.035
CGGGGU	1.99 ± 0.0036	1.908 ± 0.0053
GGGCCU	2.06 ± 0.045	2.014 ± 0.0022
GGGCCC	1.95 ± 0.02	1.98 ± 0.029
AGGCAA	1.886 ± 0.0036	1.74 ± 0.036
AGGCAC	1.94 ± 0.021	1.83 ± 0.042
AGCUAG	1.83 ± 0.066	1.508 ± 0.0088
AGCUAA	1.912 ± 0.0024	1.845 ± 0.013
AGCUAU	1.96 ± 0.012	1.825 ± 0.0081

Variant	normalized RNA/DNA level with ligand (log10) [1]	normalized RNA/DNA level without ligand (log10) [2]
AGGCCC	1.99 ± 0.038	1.95 ± 0.044
AGCUUA	1.91 ± 0.057	1.85 ± 0.0089
AGCUUU	1.94 ± 0.032	1.908 ± 0.0022
CGGAAC	1.85 ± 0.026	1.51 ± 0.072
CGGCUC	2.04 ± 0.061	2.037 ± 0.017
CGGCUG	1.97 ± 0.037	1.889 ± 0.0029
CGGCUA	1.935 ± 0.017	1.67 ± 0.031
CGGCUU	2.05 ± 0.038	1.93 ± 0.02
UGGACC	1.98 ± 0.049	1.95 ± 0.017
UGGACU	1.93 ± 0.033	1.9 ± 0.032
UGGACA	1.95 ± 0.021	1.812 ± 0.0084
AGGGCC	1.98 ± 0.024	1.98 ± 0.04
AGGGCU	1.99 ± 0.027	1.874 ± 0.018
GGGUCA	1.99 ± 0.068	1.91 ± 0.032
GGGUCG	1.99 ± 0.02	1.78 ± 0.051
GGGUCU	1.98 ± 0.054	1.93 ± 0.037
CGUAAG	1.95 ± 0.049	1.76 ± 0.022
CGUAAC	1.95 ± 0.047	1.77 ± 0.038
CGUAAU	1.86 ± 0.022	1.675 ± 0.013
GGGAAC	1.964 ± 0.016	1.724 ± 0.01
AGUAGG	1.78 ± 0.051	1.368 ± 0.013
AGUAGC	1.911 ± 0.012	1.64 ± 0.08
AGCUCC	1.97 ± 0.14	1.95 ± 0.034

Variant	normalized RNA/DNA level with ligand (log10) [1]	normalized RNA/DNA level without ligand (log10) [2]
AGCUCU	1.96 ± 0.033	1.89 ± 0.04
AGCUCA	1.998 ± 0.00082	1.895 ± 0.011
AGUAAG	1.82 ± 0.032	1.39 ± 0.024
AGUAAC	1.92 ± 0.035	1.798 ± 0.0049
UGCUAC	1.937 ± 0.0075	1.847 ± 0.014
UGCUAA	1.92 ± 0.066	1.832 ± 0.0053
UGCUAG	1.94 ± 0.025	1.658 ± 0.0069
CGGCCC	1.979 ± 0.011	2.012 ± 0.0089
CGGCCA	1.96 ± 0.056	1.95 ± 0.027
CGGCCU	2.03 ± 0.021	1.93 ± 0.027
GGGUUU	1.951 ± 0.015	1.951 ± 0.0082
GGGUUC	1.95 ± 0.053	1.91 ± 0.095
GGGGGG	1.94 ± 0.03	1.65 ± 0.049
GGGGGA	1.8897 ± 0.00058	1.77 ± 0.1
CGCUCU	2.02 ± 0.061	1.93 ± 0.048
CGCUCC	1.956 ± 0.013	1.93 ± 0.027
CGCUCA	2.01 ± 0.059	1.905 ± 0.012
CGGGCA	1.98 ± 0.049	1.8985 ± 0.0018
CGGGCG	1.973 ± 0.012	1.76 ± 0.024
CGGGCC	1.944 ± 0.0098	1.99 ± 0.026
UGGCUC	2.02 ± 0.051	2 ± 0.021
UGGCUA	2.009 ± 0.006	1.942 ± 0.011
CGGAGC	1.944 ± 0.019	1.67 ± 0.046

Variant	normalized RNA/DNA level with ligand (log10) [1]	normalized RNA/DNA level without ligand (log10) [2]
CGGAGA	1.93 ± 0.044	1.617 ± 0.012
UGGCCG	2.015 ± 0.00026	1.956 ± 0.006
UGGCCC	2.02 ± 0.022	1.99 ± 0.044
UGGCCU	1.98 ± 0.043	2.008 ± 0.0053
UGGCCA	1.97 ± 0.033	1.92 ± 0.046
AGGGAU	1.89 ± 0.051	1.713 ± 0.0045
UGUAAC	1.914 ± 0.013	1.81 ± 0.024
UGUAAA	1.9212 ± 0.0013	1.802 ± 0.015
UGUAAU	1.91 ± 0.055	1.816 ± 0.012
UGGUUG	1.962 ± 0.011	1.79 ± 0.03
UGGUUA	1.94 ± 0.044	1.871 ± 0.0021
AGUACC	1.94 ± 0.069	1.87 ± 0.03
AGUACA	1.87 ± 0.071	1.76 ± 0.036
AGUACU	1.897 ± 0.0094	1.89 ± 0.043
CGGAUA	1.87 ± 0.041	1.51 ± 0.085
CGGAUC	2.018 ± 0.0066	1.92 ± 0.028
CGGAUG	1.993 ± 0.011	1.75 ± 0.028
AGGUUC	1.939 ± 0.0087	1.83 ± 0.026
AGGUUU	1.95 ± 0.073	1.87 ± 0.026
AGGUUA	1.93 ± 0.035	1.68 ± 0.031
GGGGCA	1.941 ± 0.011	1.911 ± 0.01
GGGGCG	1.93 ± 0.057	1.748 ± 0.0076
UGCUCG	1.941 ± 0.016	1.77 ± 0.046

Variant	normalized RNA/DNA level with ligand (log10) [1]	normalized RNA/DNA level without ligand (log10) [2]
UGCUCU	1.91 ± 0.042	1.949 ± 0.017
UGCUCC	1.972 ± 0.002	1.94 ± 0.037
UGGGGC	1.99 ± 0.025	1.94 ± 0.0063
UGGGGU	1.915 ± 0.017	1.64 ± 0.034
UGGGGG	1.883 ± 0.0071	1.57 ± 0.054
CGUACG	1.92 ± 0.056	1.87 ± 0.028
CGUACU	1.954 ± 0.018	1.8632 ± 0.0012
CGGUCA	2.011 ± 0.012	1.8 ± 0.026
CGGUCU	1.95 ± 0.034	1.89 ± 0.048
CGGUCC	2 ± 0.059	1.88 ± 0.066
CGGUCG	1.9971 ± 7.8e-05	1.87 ± 0.023
CGGGAC	1.96 ± 0.078	1.726 ± 0.0062
CGGGAG	1.87 ± 0.04	1.63 ± 0.021
CGGGAA	1.85 ± 0.029	1.53 ± 0.046
CGGGAU	1.94 ± 0.064	1.608 ± 0.016
UGCUUU	1.96 ± 0.064	1.94 ± 0.0096
UGCUUA	1.937 ± 0.019	1.95 ± 0.046
UGCUUC	1.988 ± 0.0048	1.96 ± 0.045
UGCUUG	1.923 ± 0.019	1.85 ± 0.091
AGGAAU	1.906 ± 0.017	1.739 ± 0.0039
UGGGCU	2.05 ± 0.031	1.974 ± 0.019
UGGGCG	1.96 ± 0.043	1.8 ± 0.042
UGGGCA	1.938 ± 0.014	1.84 ± 0.056

— the supplement of paper PMC6757056
